T1: recombinant mf IL1RAP aa21-367 (cynomolgus monkey (Macaca fascicularis), UniProt A0A2K5X5J5 21-367)
T1 construct: also called cynomolgus monkey IL1RAP; cyno IL1RAP
T1 sequence: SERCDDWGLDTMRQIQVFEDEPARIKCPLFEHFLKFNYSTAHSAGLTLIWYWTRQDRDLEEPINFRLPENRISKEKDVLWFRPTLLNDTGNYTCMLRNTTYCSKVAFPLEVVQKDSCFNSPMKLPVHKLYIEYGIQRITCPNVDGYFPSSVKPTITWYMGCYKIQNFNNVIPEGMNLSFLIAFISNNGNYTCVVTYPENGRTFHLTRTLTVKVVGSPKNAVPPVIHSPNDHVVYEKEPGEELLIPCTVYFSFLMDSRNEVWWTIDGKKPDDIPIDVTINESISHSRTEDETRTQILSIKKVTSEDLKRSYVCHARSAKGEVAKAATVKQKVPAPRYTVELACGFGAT

T2: human IL1RAP on the cell surface (human, UniProt Q9NPH3 21-570)
T2 sequence (looked up): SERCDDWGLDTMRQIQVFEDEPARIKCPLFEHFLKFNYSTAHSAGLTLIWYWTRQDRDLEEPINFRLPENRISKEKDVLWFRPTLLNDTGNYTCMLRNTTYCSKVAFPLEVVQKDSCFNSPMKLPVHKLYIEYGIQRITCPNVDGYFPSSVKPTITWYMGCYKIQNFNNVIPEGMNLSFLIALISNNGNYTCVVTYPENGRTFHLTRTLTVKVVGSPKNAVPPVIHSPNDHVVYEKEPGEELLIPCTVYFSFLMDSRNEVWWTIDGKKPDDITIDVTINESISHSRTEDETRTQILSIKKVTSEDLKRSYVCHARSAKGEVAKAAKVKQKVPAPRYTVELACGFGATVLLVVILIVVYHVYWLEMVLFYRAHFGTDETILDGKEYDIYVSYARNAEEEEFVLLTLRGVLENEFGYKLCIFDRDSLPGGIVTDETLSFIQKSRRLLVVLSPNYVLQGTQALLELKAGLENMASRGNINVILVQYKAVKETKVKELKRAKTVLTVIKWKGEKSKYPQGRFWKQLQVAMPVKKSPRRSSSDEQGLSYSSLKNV

T3: recombinant hIL1RAP Domain1+2+3 (aa21-367) (human, UniProt Q9NPH3 21-367)
T3 construct: Numbering on Uniprot Q9NPH3
T3 sequence (looked up): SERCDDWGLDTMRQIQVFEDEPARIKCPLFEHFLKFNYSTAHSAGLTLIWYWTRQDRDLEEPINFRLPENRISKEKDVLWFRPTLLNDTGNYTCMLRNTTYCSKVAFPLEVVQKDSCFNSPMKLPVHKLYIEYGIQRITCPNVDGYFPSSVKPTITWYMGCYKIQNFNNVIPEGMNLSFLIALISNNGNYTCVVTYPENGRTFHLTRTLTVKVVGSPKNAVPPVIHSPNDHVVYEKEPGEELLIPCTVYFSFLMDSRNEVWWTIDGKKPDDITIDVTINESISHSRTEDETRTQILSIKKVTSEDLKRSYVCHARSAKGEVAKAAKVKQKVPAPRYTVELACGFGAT

B1: h48D2 VH3:VL5 (antibody, human IgG1, kappa, L234A L235A, V domains shown)
VH: EVQLLESGGGLVLPGGSLRLSCAASGPSLSHFDITWVRQAPGKGLEWVSTISPGVSTYYASWAKSRFTISRDNSKNTLYLQMSSLRAEDTAVYYCARGGVGSSWKAFDLWGLGTTVTVSS
VL: APVLTQSPATLEASVGDRVTITCQASESISTALAWYQQKPGQPPKLLIYKASTLPSGVPSRFSGSGSGTEFTLTISDLESDDAATYYCQQGFSSGNVHNAFGGGTEVVVKR
notes: Humanized; also called VL5:VH3
B2: h48D2 VH4:VL5 (antibody, human IgG1, kappa, L234A L235A, V domains shown)
VH: QVQLQESGPGLVKPSETLSLTCTVSGPSLSHFDITWIRQPPGKGLEWIGTISPGVSTYYASWAKSRFTISVDTSKNQFSLKLTSVTAADTATYYCARGGVGSSWKAFDLWGPGTLVTVSS
VL: APVLTQSPATLEASVGDRVTITCQASESISTALAWYQQKPGQPPKLLIYKASTLPSGVPSRFSGSGSGTEFTLTISDLESDDAATYYCQQGFSSGNVHNAFGGGTEVVVKR
notes: Humanized; also called VL5:VH4
B3: h48D2 VH3:VL2 (antibody, human IgG1, kappa, L234A L235A, V domains shown)
VH: EVQLLESGGGLVLPGGSLRLSCAASGPSLSHFDITWVRQAPGKGLEWVSTISPGVSTYYASWAKSRFTISRDNSKNTLYLQMSSLRAEDTAVYYCARGGVGSSWKAFDLWGLGTTVTVSS
VL: QIVLTQSPATLSASVGDRVTITCQASESISTALAWYQQKPGKAPKLLIYKASTLPSGVPSRFSGSGSGTEFTLTISSLQPDDSATYYCQQGFSSGNVHNAFGQGTKLEIKR
notes: Humanized; also called VL2:VH3
B4: h48D2 VH3:VL3 (antibody, human IgG1, kappa, L234A L235A, V domains shown)
VH: EVQLLESGGGLVLPGGSLRLSCAASGPSLSHFDITWVRQAPGKGLEWVSTISPGVSTYYASWAKSRFTISRDNSKNTLYLQMSSLRAEDTAVYYCARGGVGSSWKAFDLWGLGTTVTVSS
VL: DILLTQTPSVVSASVGDRVTITCQASESISTALAWYQQKPGQAPRLLIYKASTLPSGVPSRFRGSGSGTDFTLTITSLQPEDFATYYCQQGFSSGNVHNAFGGGTRLEIKR
notes: Humanized; also called VL3:VH3
B5: h48D2 VH2:VL2 (antibody, human IgG1, kappa, L234A L235A, V domains shown)
VH: EVQLVESGGALVQPGGSLRLSCIVSGPSLSHFDITWFRQAPGKGLEWVATISPGVSTYYASWAKSRFTISTDTSKNTLFLQMDSLRAEDTAVYYCARGGVGSSWKAFDLWGPGTLVTVSS
VL: QIVLTQSPATLSASVGDRVTITCQASESISTALAWYQQKPGKAPKLLIYKASTLPSGVPSRFSGSGSGTEFTLTISSLQPDDSATYYCQQGFSSGNVHNAFGQGTKLEIKR
notes: Humanized; also called VL2:VH2
B6: h48D2 VH2:VL3 (antibody, human IgG1, kappa, L234A L235A, V domains shown)
VH: EVQLVESGGALVQPGGSLRLSCIVSGPSLSHFDITWFRQAPGKGLEWVATISPGVSTYYASWAKSRFTISTDTSKNTLFLQMDSLRAEDTAVYYCARGGVGSSWKAFDLWGPGTLVTVSS
VL: DILLTQTPSVVSASVGDRVTITCQASESISTALAWYQQKPGQAPRLLIYKASTLPSGVPSRFRGSGSGTDFTLTITSLQPEDFATYYCQQGFSSGNVHNAFGGGTRLEIKR
notes: Humanized; also called VL3:VH2
B7: h48D2 VH2:VL4 (antibody, human IgG1, kappa, L234A L235A, V domains shown)
VH: EVQLVESGGALVQPGGSLRLSCIVSGPSLSHFDITWFRQAPGKGLEWVATISPGVSTYYASWAKSRFTISTDTSKNTLFLQMDSLRAEDTAVYYCARGGVGSSWKAFDLWGPGTLVTVSS
VL: ELVMTQSPSSVSASVGDRVTITCQASESISTALAWYQQKPGKAPKLLIYKASTLPSGVPSRFSGSGSGTDFTLTINSLQPEDFATYYCQQGFSSGNVHNAFGGGTKVEIKR
notes: Humanized; also called VL4:VH2
B8: h48D2 VH4:VL1 (antibody, human IgG1, kappa, L234A L235A, V domains shown)
VH: QVQLQESGPGLVKPSETLSLTCTVSGPSLSHFDITWIRQPPGKGLEWIGTISPGVSTYYASWAKSRFTISVDTSKNQFSLKLTSVTAADTATYYCARGGVGSSWKAFDLWGPGTLVTVSS
VL: DIVMTQSPSSLSASVGDRVTITCQASESISTALAWYQQKPGKAPKLLIYKASTLPSGVPSRFSGSGSGTDFTLTISSLQPEDFATYYCQQGFSSGNVHNAFGGGTKVVIKR
notes: Humanized; also called VL1:VH4
B9: h48D2 VH4:VL2 (antibody, human IgG1, kappa, L234A L235A, V domains shown)
VH: QVQLQESGPGLVKPSETLSLTCTVSGPSLSHFDITWIRQPPGKGLEWIGTISPGVSTYYASWAKSRFTISVDTSKNQFSLKLTSVTAADTATYYCARGGVGSSWKAFDLWGPGTLVTVSS
VL: QIVLTQSPATLSASVGDRVTITCQASESISTALAWYQQKPGKAPKLLIYKASTLPSGVPSRFSGSGSGTEFTLTISSLQPDDSATYYCQQGFSSGNVHNAFGQGTKLEIKR
notes: Humanized; also called VL2:VH4
B10: h48D2 VH4:VL3 (antibody, human IgG1, kappa, L234A L235A, V domains shown)
VH: QVQLQESGPGLVKPSETLSLTCTVSGPSLSHFDITWIRQPPGKGLEWIGTISPGVSTYYASWAKSRFTISVDTSKNQFSLKLTSVTAADTATYYCARGGVGSSWKAFDLWGPGTLVTVSS
VL: DILLTQTPSVVSASVGDRVTITCQASESISTALAWYQQKPGQAPRLLIYKASTLPSGVPSRFRGSGSGTDFTLTITSLQPEDFATYYCQQGFSSGNVHNAFGGGTRLEIKR
notes: Humanized; also called VL3:VH4
B11: h48D2 VH4:VL4 (antibody, human IgG1, kappa, L234A L235A, V domains shown)
VH: QVQLQESGPGLVKPSETLSLTCTVSGPSLSHFDITWIRQPPGKGLEWIGTISPGVSTYYASWAKSRFTISVDTSKNQFSLKLTSVTAADTATYYCARGGVGSSWKAFDLWGPGTLVTVSS
VL: ELVMTQSPSSVSASVGDRVTITCQASESISTALAWYQQKPGKAPKLLIYKASTLPSGVPSRFSGSGSGTDFTLTINSLQPEDFATYYCQQGFSSGNVHNAFGGGTKVEIKR
notes: Humanized; also called VL4:VH4

What was measured:
[1] = biological target: T1, recombinant mf IL1RAP aa21-367; assay: binding ELISA, coated recombinant mf IL1RAP aa21-367
[2] = biological target: T2, human IL1RAP on the cell surface; assay: cell-based or functional assay
[3] = biological target: T3, recombinant hIL1RAP Domain1+2+3 …; assay: bio-layer interferometry, human IL1RAP
Protocol: Affinity measurements were done on BLItz™ Label-Free Protein Analysis System from ForteBio, using the Basic Kinetics module in the BLItz Pro 1.3.1.3 software from Molecular Devices. Protein A biosensors were hydrated in blocking buffer (PBS, 0.5% BSA, 0.05% Tween 20, pH 7.4) for minimum 10 min at room temperature before coating. Protein A biosensors were coated with antibodies by dipping the biosensors in 200 μl of antibody solution (10 μg/ml in blocking buffer) for 30 min at room temperature. The sensors were then incubated in 200 μl blocking buffer for at least 10 min before use. […] The baseline was made in blocking buffer with a duration time of 30 sec. Association was made for 120 sec in hIL1RAP followed by 120 sec dissociation in blocking buffer.
The antibodies were characterized for A) binding (ELISA analysis, human and cynomolgus monkey IL1RAP), B) inhibition of cytokine signaling (HEK-Blue™ assay), C) affinity (Bio-layer interferometry), D) size heterogeneity (SE-HPLC) and E) yield (concentration, A280). […] SE-HPLC was performed using standard procedures and PBS as running buffer. Affinity and cytokine inhibition were measured as previously described in Example 10. All 25 humanized clones were analyzed for blocking activity on IL-1α, IL-1β and IL-33 signaling while only the clones that had retained the inhibitory activity similar to chimeric 48D2 were analyzed for IL-36 inhibition.
KD values for affinity towards human IL1RAP are shown in Table 11 for the humanized 48D2 variants. Affinity was measured using bio-layer interferometry. […] See also Table 4 for a direct comparison of chimeric 48D2, humanized 48D2 variant VH5:VL4, and a humanized and de-immunized 48D2 variant VH5.GL:VL4.

[4] = biological target: T3, recombinant hIL1RAP Domain1+2+3 …; assay: binding ELISA, coated recombinant hIL1RAP aa21-367

| Binder | IC50 [1] | IC50 of IL-1α signaling (HEK-Blue assay) [2] | IC50 of IL-1β signaling (HEK-Blue assay) [2] | IC50 of IL-33 signaling (HEK-Blue assay) [2] | Kd [3] | IC50 [4] |
| --- | --- | --- | --- | --- | --- | --- |
| B1 | 0.0279 µg/mL | 0.288 µM | 0.00987 µM | 0.474 µM | 0.0344 µM | 0.0232 µg/mL |
| B2 | 0.0244 µg/mL | – | 0.000273 µM | 0.0743 µM | 0.015 µM | 0.0258 µg/mL |
| B3 | 0.0274 µg/mL | – | 0.00911 µM | 0.474 µM | 0.0224 µM | 0.0258 µg/mL |
| B4 | 0.0279 µg/mL | – | 0.0105 µM | – | 0.0274 µM | 0.0281 µg/mL |
| B5 | 0.0292 µg/mL | – | 0.000882 µM | 0.0458 µM | 0.00733 µM | 0.0261 µg/mL |
| B6 | 0.0314 µg/mL | – | 0.00366 µM | 1.95 µM | 0.0121 µM | 0.0273 µg/mL |
| B7 | 0.0312 µg/mL | ~4130 µM | 0.00136 µM | 0.0864 µM | 0.0112 µM | 0.0262 µg/mL |
| B8 | 0.0316 µg/mL | – | 0.00295 µM | – | 0.0197 µM | 0.0308 µg/mL |
| B9 | 0.0291 µg/mL | – | 0.00555 µM | – | 0.0132 µM | 0.0322 µg/mL |
| B10 | 0.0302 µg/mL | – | 0.00297 µM | 7.03 µM | 0.0167 µM | 0.0312 µg/mL |
| B11 | 0.0251 µg/mL | – | 0.00467 µM | 0.26 µM | 0.0228 µM | 0.0243 µg/mL |
